Laboratory results reported in the supplement of paper PMC10126150.
± gives the standard deviation of the averaged measurements.

Tested on: ATP
Test: switch fluorescence ratio, 500 uM ATP over buffer (Cy3 cluster intensity, sum of 5 cycles each) (fold (ratio)); higher = stronger signal-on switching upon ATP binding; sequences stand for … in TCGTCGGCAGCGTCAGATGTGTATAAGAGACAGTTTTTTTTTTTTTTTTTTTTTTTTT…TC
Details: aptamer strand: ATP DNA aptamer (quencher-CACCTGGGGGAGTATTGCGGAGGAAGG + anchor), 100 nM annealed; ATP concentration: 500 uM
Procedure, shortened: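 Imaging in selection buffer was followed by imaging after 15 min with 500 uM ATP at 22 °C, for Cy3-labelled switching-strand clusters annealed to 100 nM quencher-labelled ATP aptamer on a modified Illumina MiSeq flow-cell. Five of these buffer/ATP cycles ran, separated by NaOH stripping and re-annealing. The fluorescence ratio per cluster is summed target-cycle over summed buffer-cycle Cy3 intensity, averaged per switch-domain sequence; clusters outside 100-1000 RFU were removed.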
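Further: ATP exposure 15 min at 22 °C before imaging.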

ATATAAAGGA
switch fluorescence ratio: 1.01 ± 0.024

GAGGTTTAAT
switch fluorescence ratio: 0.981 ± 0.039

CGGCTGTCAC
switch fluorescence ratio: 1.03 ± 0.025

AAGCACGGTT
switch fluorescence ratio: 1.08 ± 0.093

CGAAGTTATA
switch fluorescence ratio: 1.19 ± 0.038

TAGGGGGCAG
switch fluorescence ratio: 1 ± 0.033

GTTCTTTGG
switch fluorescence ratio: 0.9949 ± 0.0077

ATGGTTTTTG
switch fluorescence ratio: 1.01 ± 0.013

TAGCCTATTG
switch fluorescence ratio: 0.979 ± 0.038

AGGGTAGGGT
switch fluorescence ratio: 1.01 ± 0.033

GGGGGTGCTG
switch fluorescence ratio: 0.993 ± 0.025

TCAAGTTACA
switch fluorescence ratio: 1.078 ± 0.0041

ATTTCAGGGA
switch fluorescence ratio: 0.978 ± 0.024

ATTTAGGGGT
switch fluorescence ratio: 1.02 ± 0.057

CCAGGGAGGT
switch fluorescence ratio: 1 ± 0.034

GGTCAGGGGA
switch fluorescence ratio: 0.988 ± 0.04

TATAAAAATT
switch fluorescence ratio: 1.02 ± 0.025

AGGGCTCGGG
switch fluorescence ratio: 1.012 ± 0.0075

CAGAGTGTGA
switch fluorescence ratio: 1.005 ± 0.0086

TTTTGAGGTT
switch fluorescence ratio: 0.983 ± 0.034

AGATTGCATG
switch fluorescence ratio: 1.029 ± 0.0077

TGGGACATGC
switch fluorescence ratio: 0.987 ± 0.0088

TCTTAAGAGT
switch fluorescence ratio: 0.9987 ± 0.0022

CTAGGATCGG
switch fluorescence ratio: 0.993 ± 0.057

GCTAATAAAT
switch fluorescence ratio: 1.046 ± 0.0035

TACATGTTAG
switch fluorescence ratio: 1.01 ± 0.024

CAATGGTGGT
switch fluorescence ratio: 1.01 ± 0.028

TTTAGAGTCC
switch fluorescence ratio: 1.05 ± 0.098

TGCGGGGGGT
switch fluorescence ratio: 1.025 ± 0.0086

CACGTTGTAT
switch fluorescence ratio: 1.32 ± 0.42

AGTCGGACTT
switch fluorescence ratio: 0.993 ± 0.01

AATCAGTCTG
switch fluorescence ratio: 0.992 ± 0.013

CTAAGTTTGA
switch fluorescence ratio: 1.03 ± 0.037

GAAAGGAAAA
switch fluorescence ratio: 0.975 ± 0.016

AGGTCTAATG
switch fluorescence ratio: 1.01 ± 0.03

TTGTCTAGGG
switch fluorescence ratio: 0.98 ± 0.033

GGGAATATTA
switch fluorescence ratio: 1.04 ± 0.023

TTTGAGGGTT
switch fluorescence ratio: 0.983 ± 0.026

ATTTCGGGGA
switch fluorescence ratio: 0.997 ± 0.042

GGTGGGCGGA
switch fluorescence ratio: 1.01 ± 0.029

ATGGCGTGGC
switch fluorescence ratio: 0.986 ± 0.018

TCTTGAAATT
switch fluorescence ratio: 1.021 ± 0.0031

TATAAGTGTT
switch fluorescence ratio: 1.002 ± 0.0067

TTTTATGGGT
switch fluorescence ratio: 0.992 ± 0.018

TTAGGTTGGT
switch fluorescence ratio: 1 ± 0.065

TGCGTTGCGG
switch fluorescence ratio: 0.978 ± 0.029

TTGGATGGGT
switch fluorescence ratio: 0.959 ± 0.05

GGCGTTTTCG
switch fluorescence ratio: 0.997 ± 0.044

AATAATTTGG
switch fluorescence ratio: 0.978 ± 0.012

ATTTGAACGT
switch fluorescence ratio: 0.966 ± 0.085

CCAATTTTGG
switch fluorescence ratio: 0.977 ± 0.013

GCATGATGGG
switch fluorescence ratio: 0.986 ± 0.043

ATGGGTGTTG
switch fluorescence ratio: 0.992 ± 0.022

TTGGTTCACC
switch fluorescence ratio: 0.955 ± 0.029

AAAAACACCG
switch fluorescence ratio: 1.09 ± 0.078

GCGGGGGTAC
switch fluorescence ratio: 1.11 ± 0.077

CCATCAAGTG
switch fluorescence ratio: 1.108 ± 0.0049

CCAATGTACT
switch fluorescence ratio: 1.36 ± 0.05

AAAATCGGGA
switch fluorescence ratio: 1 ± 0.035

GTAATTTTTC
switch fluorescence ratio: 1.01 ± 0.053

TTTGGTATAG
switch fluorescence ratio: 0.975 ± 0.01

CCTGGGGAAT
switch fluorescence ratio: 1.91 ± 1.1

CCGTAGGGCT
switch fluorescence ratio: 1.05 ± 0.042

GGTCTTGTTT
switch fluorescence ratio: 0.9891 ± 0.0078

AGTTGTGAGG
switch fluorescence ratio: 1.01 ± 0.026

ACAACATCCT
switch fluorescence ratio: 1.08 ± 0.044

GAGTCTTATA
switch fluorescence ratio: 1.01 ± 0.031

AGTAGGCAGC
switch fluorescence ratio: 1.01 ± 0.033

CTTGTGGCGG
switch fluorescence ratio: 0.97 ± 0.0098

ACCCCATGTT
switch fluorescence ratio: 1.86 ± 1

TTAGGGTCAT
switch fluorescence ratio: 0.979 ± 0.012

CGTCGGAGGC
switch fluorescence ratio: 0.986 ± 0.019

TGAGGTTTTC
switch fluorescence ratio: 1.02 ± 0.048

CCCTCTCGGT
switch fluorescence ratio: 1.037 ± 0.0028

TCCAGGCGAA
switch fluorescence ratio: 1.08 ± 0.038

TACTAAGAGA
switch fluorescence ratio: 1.03 ± 0.029

GACTTAGTGT
switch fluorescence ratio: 1.012 ± 0.0036

AGGCGGGTAT
switch fluorescence ratio: 1.015 ± 0.0028

TTACAAAGGA
switch fluorescence ratio: 0.999 ± 0.017

ATTTTTGGTC
switch fluorescence ratio: 0.9864 ± 0.0038

TAAAAGGGGA
switch fluorescence ratio: 0.982 ± 0.029

TTTCGGTGTT
switch fluorescence ratio: 0.981 ± 0.041

ACCCCAAATG
switch fluorescence ratio: 1.124 ± 0.0098

ATTGTAAGTG
switch fluorescence ratio: 1.03 ± 0.088

TTTAGCTAGT
switch fluorescence ratio: 1.01 ± 0.032

AAGTGAGGGT
switch fluorescence ratio: 0.996 ± 0.036

TAAAAATATA
switch fluorescence ratio: 1 ± 0.034

TGTGGCTAGG
switch fluorescence ratio: 1.02 ± 0.029

GTGGGTGGGA
switch fluorescence ratio: 0.982 ± 0.046

AAATATGGTT
switch fluorescence ratio: 1.02 ± 0.035

TCGGTAGCGA
switch fluorescence ratio: 1.14 ± 0.17

GCAGAAGTAC
switch fluorescence ratio: 2.37 ± 0.075

TCGTAATTGT
switch fluorescence ratio: 1.02 ± 0.024

AATCGCACCA
switch fluorescence ratio: 1.11 ± 0.025

GGGTACGGAT
switch fluorescence ratio: 1.04 ± 0.016

CGACATTGAG
switch fluorescence ratio: 0.967 ± 0.012

TTCGATGGTG
switch fluorescence ratio: 0.987 ± 0.0044

TTTATGAGCT
switch fluorescence ratio: 1.03 ± 0.014

AGTATAGACC
switch fluorescence ratio: 0.983 ± 0.01

TAGTTCTGTT
switch fluorescence ratio: 0.983 ± 0.0077

AGGATTCGGT
switch fluorescence ratio: 1.01 ± 0.027

AGGAGCGTCG
switch fluorescence ratio: 1.01 ± 0.013

CGTGGATAGT
switch fluorescence ratio: 0.955 ± 0.03

GGGCTTGTCC
switch fluorescence ratio: 0.98 ± 0.043

ATTGATTTTC
switch fluorescence ratio: 0.999 ± 0.024

CTTCGGCCTT
switch fluorescence ratio: 0.976 ± 0.02

ACGTCTGGCT
switch fluorescence ratio: 0.996 ± 0.028

TAGAAAGGCC
switch fluorescence ratio: 1.03 ± 0.037

GATGACGTCC
switch fluorescence ratio: 1.04 ± 0.069

ATGACCGATT
switch fluorescence ratio: 1.02 ± 0.049

GTATACGCAG
switch fluorescence ratio: 1.02 ± 0.026

GGGAGAACGG
switch fluorescence ratio: 0.977 ± 0.046

GGAAGTGTGT
switch fluorescence ratio: 0.949 ± 0.021

TTTATTTTCT
switch fluorescence ratio: 0.991 ± 0.015

ATCATTTGGG
switch fluorescence ratio: 0.997 ± 0.039

ATGGGCAGGG
switch fluorescence ratio: 0.9931 ± 0.0056

AGAGTCGCGG
switch fluorescence ratio: 1 ± 0.015

AACGTTGTAC
switch fluorescence ratio: 1.51 ± 0.037

CTGATGCGCG
switch fluorescence ratio: 1 ± 0.016

GTGTTTTACG
switch fluorescence ratio: 1.01 ± 0.021

ACTTTGGCCC
switch fluorescence ratio: 1.005 ± 1.1e-05

TTTTAGCTCT
switch fluorescence ratio: 0.963 ± 0.015

ATAAGTAAAT
switch fluorescence ratio: 1 ± 0.018

GGTTTCATAG
switch fluorescence ratio: 0.976 ± 0.013

TTTGTTGTGC
switch fluorescence ratio: 1.01 ± 0.016

GAAATACTCT
switch fluorescence ratio: 1.44 ± 0.12

TCCGGTTCCT
switch fluorescence ratio: 1.07 ± 0.036

GTTAAAGGTA
switch fluorescence ratio: 0.962 ± 0.019

CCCGGCTGGT
switch fluorescence ratio: 0.9956 ± 0.0095

GGTGTGTGTC
switch fluorescence ratio: 1.02 ± 0.02

ATACGGTAAT
switch fluorescence ratio: 1.16 ± 0.052

ATATTCAGGG
switch fluorescence ratio: 1.01 ± 0.031

GCAGGTGTGC
switch fluorescence ratio: 1.13 ± 0.082

TGTGTTTACT
switch fluorescence ratio: 0.991 ± 0.022

TGGGGAGTGT
switch fluorescence ratio: 0.9849 ± 0.0076

GTCGGGGAAG
switch fluorescence ratio: 0.958 ± 0.013

TCGGTTTGCA
switch fluorescence ratio: 0.997 ± 0.018

GGTAGGCGGG
switch fluorescence ratio: 0.959 ± 0.018

TGGTTGTTTT
switch fluorescence ratio: 0.99 ± 0.018

TGGGGGATCT
switch fluorescence ratio: 1 ± 0.038

TCGGGGTTTC
switch fluorescence ratio: 1.05 ± 0.019

GCAGTGGGGT
switch fluorescence ratio: 1.01 ± 0.022

ATTGAGCGTG
switch fluorescence ratio: 1.01 ± 0.015

GACGGGGCTA
switch fluorescence ratio: 1.01 ± 0.023

TTATAAGTGT
switch fluorescence ratio: 0.963 ± 0.035

TATGTACCTT
switch fluorescence ratio: 1.179 ± 0.0091

TGGGATGAAG
switch fluorescence ratio: 0.982 ± 0.01

CGCGTTGGCA
switch fluorescence ratio: 1.04 ± 0.028

ATTACTAGGA
switch fluorescence ratio: 1 ± 0.057

GGTTATATGT
switch fluorescence ratio: 1.02 ± 0.021

AAGAGGGGGT
switch fluorescence ratio: 1 ± 0.03

ACTCAAACCA
switch fluorescence ratio: 1.14 ± 0.035

GAAAGGGCTG
switch fluorescence ratio: 1.05 ± 0.087
